Laboratory results reported in US20210122824A1 (ADAGENE, published 2021).

Tests used:
[1] = target: T1, human PD-L1-Fc fusion protein (Sino Biological Cat #10084-H02H) (human, UniProt Q9NZQ7 19-239); experiment: SPR (Biacore T200), human PD-L1-Fc immobilized, IgG in solution
T1 construct: bought; not shown: Fc part of the bought fusion

[2] = target: T2, human PD-L1 expressed on cell surface (human, UniProt Q9NZQ7 19-290); experiment: blocking by flow cytometry, HEK293F cells expressing full-length human PD-L1, 100 nM antibody then 100 nM biotinylated PD1-His (blocked ligand), Alexa fluor 633 streptavidin; isotype control panel Q2 35.1%
T2 construct: whole, on cells; also called full-length human PD-L1; cell surface PD-L1

[3] = target: T2, human PD-L1 expressed on cell surface; experiment: cell-based or functional assay
[4] = target: T2, human PD-L1 expressed on cell surface; experiment: flow cytometry on cells expressing human PD-L1 (legend of FIG. 5)
[5] = target: T3, human TIM3 expressed on HEK293F cells (human, UniProt Q8TDQ0 22-301); experiment: flow cytometry, HEK293F cells transiently expressing the target, 100 nM antibody, PE anti-human Fc; Mean (PE-A against FITC-A, GFP surrogate)
T3 construct: whole, on cells

[6] = target: T4, human CTLA4 expressed on HEK293F cells (human, UniProt P16410 36-223); experiment: as above
T4 construct: whole, on cells

[7] = target: T5, human LAG3 expressed on HEK293F cells (human, UniProt P18627 23-525); experiment: as above
T5 construct: whole, on cells
T5 sequence (looked up): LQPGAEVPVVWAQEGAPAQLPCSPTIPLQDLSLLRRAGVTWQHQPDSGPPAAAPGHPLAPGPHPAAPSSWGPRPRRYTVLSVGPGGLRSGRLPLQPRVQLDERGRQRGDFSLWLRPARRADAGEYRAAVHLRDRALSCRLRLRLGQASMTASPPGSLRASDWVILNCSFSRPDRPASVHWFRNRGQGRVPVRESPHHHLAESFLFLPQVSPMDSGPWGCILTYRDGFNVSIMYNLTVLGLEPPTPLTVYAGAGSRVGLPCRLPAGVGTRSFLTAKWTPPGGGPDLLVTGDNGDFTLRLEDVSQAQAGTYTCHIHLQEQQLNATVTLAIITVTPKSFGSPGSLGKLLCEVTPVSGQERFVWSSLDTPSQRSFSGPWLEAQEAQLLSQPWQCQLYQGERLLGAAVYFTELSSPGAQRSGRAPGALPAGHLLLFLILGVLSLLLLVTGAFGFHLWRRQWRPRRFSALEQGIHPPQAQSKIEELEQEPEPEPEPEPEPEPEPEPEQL

T2 sequence (Q9NZQ7 19-290): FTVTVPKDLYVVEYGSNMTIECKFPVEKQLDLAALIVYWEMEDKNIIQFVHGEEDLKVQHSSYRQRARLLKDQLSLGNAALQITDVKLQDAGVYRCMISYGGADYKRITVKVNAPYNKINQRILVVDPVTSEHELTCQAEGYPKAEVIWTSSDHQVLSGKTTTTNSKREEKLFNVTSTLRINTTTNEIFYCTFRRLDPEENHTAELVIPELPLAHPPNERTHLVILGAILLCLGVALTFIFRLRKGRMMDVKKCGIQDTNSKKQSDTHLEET
T4 sequence (P16410 36-223): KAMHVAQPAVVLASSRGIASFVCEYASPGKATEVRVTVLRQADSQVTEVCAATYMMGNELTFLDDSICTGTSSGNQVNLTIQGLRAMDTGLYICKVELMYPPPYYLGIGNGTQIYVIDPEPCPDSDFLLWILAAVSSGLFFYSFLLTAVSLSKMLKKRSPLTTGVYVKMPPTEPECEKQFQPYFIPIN
T1 sequence (Q9NZQ7 19-239 limits assumed): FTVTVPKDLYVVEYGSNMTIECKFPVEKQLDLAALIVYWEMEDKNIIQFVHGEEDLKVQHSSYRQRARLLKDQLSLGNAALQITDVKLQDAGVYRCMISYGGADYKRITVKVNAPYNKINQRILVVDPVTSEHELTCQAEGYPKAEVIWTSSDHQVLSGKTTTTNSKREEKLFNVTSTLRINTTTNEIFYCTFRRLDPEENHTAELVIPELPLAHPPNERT

Kd [1]: < 0.01 nM
Q2 (percent of cells positive for GFP and for the APC signal of PD1-His, antibody present) [2]: 0.27%
Relative luminescence units (RLU), Promega PD1/PD-L1 reporter gene assay; EC50 [3]: 0.39 nM
EC50 [4]: ~1 nM
Mean [5]: 8100
Mean [6]: 4900
Mean [7]: 5850
B1: TY21421 (antibody, V domains shown)
VH: EVQLVESGGGLVQPGGSLRLSCAASGYSISSGYYWGWIRQAPGKGLEWIGIIYPSGGGTNYAQKFQGRVTISRDNSKNTLYLQLNSLRAEDTAVYYCARGGGLGFDYWGQGTLVTVSS
VL: DIQLTQSPSSLSASVGDRVTITCRASQSIPSFLNWYQQKPGKAPKLLIYAASSLQSGVPSRFSGSGSGTDFTLTISSLQPEDFATYYCQHYISWPRQFTFGQGTKVEIKR
notes: IgG1 (wild type) made from Fab B15041, from HEK293F cells
